Experimental data: paper PMC3061051 (Nucleic Acids Research, 2010)

Assays:
Assay in all cases: EMSA
[1] = target: T1, Δ(F561-T562-T566)-RECQ1T1 (human, UniProt P46063 49-616, del561-562;del566-566)
T1 sequence: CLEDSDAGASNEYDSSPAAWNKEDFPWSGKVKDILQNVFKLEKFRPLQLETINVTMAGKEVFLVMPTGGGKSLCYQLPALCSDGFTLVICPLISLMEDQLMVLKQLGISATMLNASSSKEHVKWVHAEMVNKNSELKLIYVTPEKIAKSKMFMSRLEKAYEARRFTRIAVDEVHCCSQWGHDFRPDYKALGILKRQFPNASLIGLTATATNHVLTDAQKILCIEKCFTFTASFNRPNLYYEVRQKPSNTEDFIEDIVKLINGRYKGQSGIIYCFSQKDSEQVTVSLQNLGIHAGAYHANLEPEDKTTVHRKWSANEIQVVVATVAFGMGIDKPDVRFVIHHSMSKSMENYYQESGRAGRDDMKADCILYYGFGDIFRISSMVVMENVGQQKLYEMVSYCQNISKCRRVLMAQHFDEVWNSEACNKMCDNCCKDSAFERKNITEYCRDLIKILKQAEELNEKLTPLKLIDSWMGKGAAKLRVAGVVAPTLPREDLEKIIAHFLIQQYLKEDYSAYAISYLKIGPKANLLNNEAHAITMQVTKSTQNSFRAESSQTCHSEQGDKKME

W227A-F231A-RECQ1T1 = W227A-F231A-RECQ1T1 (human, UniProt P46063 49-616, W227A;F231A)
RECQ1T1 (RECQ1 49-616) = RECQ1T1 (RECQ1 49-616) (human, UniProt P46063 49-616)
[2] = target: T2, Y559A-S560A-F561A-RECQ1T1 (human, UniProt P46063 49-616, Y559A;S560A;F561A)
T2 sequence: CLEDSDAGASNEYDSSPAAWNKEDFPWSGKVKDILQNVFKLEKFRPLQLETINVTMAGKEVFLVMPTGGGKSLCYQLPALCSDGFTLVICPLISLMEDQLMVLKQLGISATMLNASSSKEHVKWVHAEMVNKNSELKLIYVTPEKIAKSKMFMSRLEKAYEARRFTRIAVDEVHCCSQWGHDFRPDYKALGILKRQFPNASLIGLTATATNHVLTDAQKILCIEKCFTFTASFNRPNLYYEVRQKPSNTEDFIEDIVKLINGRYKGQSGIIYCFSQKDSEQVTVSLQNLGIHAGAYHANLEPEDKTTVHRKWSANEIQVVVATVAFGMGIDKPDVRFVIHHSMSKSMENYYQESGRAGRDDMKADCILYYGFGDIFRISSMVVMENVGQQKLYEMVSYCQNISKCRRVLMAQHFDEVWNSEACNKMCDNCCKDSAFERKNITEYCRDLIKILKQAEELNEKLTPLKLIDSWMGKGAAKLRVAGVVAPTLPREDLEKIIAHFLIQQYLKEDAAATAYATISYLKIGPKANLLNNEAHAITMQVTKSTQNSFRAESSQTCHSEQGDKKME

Y564A-RECQ1T1 = target: T3, Y564A-RECQ1T1 (human, UniProt P46063 49-616, Y564A)
T3 sequence: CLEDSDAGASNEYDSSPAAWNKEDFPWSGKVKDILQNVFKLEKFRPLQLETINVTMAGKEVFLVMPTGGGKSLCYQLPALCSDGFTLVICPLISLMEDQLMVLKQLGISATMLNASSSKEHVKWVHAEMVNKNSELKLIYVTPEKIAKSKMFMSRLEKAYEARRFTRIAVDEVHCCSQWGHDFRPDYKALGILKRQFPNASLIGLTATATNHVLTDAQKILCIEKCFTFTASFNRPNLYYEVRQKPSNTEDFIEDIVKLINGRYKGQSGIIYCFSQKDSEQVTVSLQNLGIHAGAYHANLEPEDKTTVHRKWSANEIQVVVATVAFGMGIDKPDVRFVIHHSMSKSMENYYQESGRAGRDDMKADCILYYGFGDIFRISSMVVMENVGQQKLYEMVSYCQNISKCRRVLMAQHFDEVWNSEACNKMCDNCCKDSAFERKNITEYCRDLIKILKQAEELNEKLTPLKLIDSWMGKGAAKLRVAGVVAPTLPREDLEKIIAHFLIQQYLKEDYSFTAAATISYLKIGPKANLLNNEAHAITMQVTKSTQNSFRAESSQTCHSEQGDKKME

Measured: binding result

B1: X12 Holliday junction (structured_DNA)
DNA 1: GACGCTGCCGAATTCTGGCTTGCTAGGACATCTTTGCCCACGTTGACCCG
DNA 2: CGGGTCAACGTGGGCAAAGATGTCCTAGCAATGTAATCGTCTATGACGTC
DNA 3: GACGTCATAGACGATTACATTGCTAGGACATGCTGTCTAGAGACTATCGC
DNA 4: GCGATAGTCTCTAGACAGCATGTCCTAGCAAGCCAGAATTCGGCAGCGTC
no binding: all assays above
